Data from US20210147507A1, “METHODS TO AUGMENT OR ALTER SIGNAL TRANSDUCTION” (Bellicum Pharmaceuticals, Inc., priority 2017, published 2021).
Changes are numbered by the printed parent chain. Names and notes keep the numbering of the source.

B1: N405Qco (protein, UniProt P55211 1-416, looked up, variant N405Q)
chain: MDEADRRLLRRCRLRLVEELQVDQLWDALLSRELFRPHMIEDIQRAGSGSRRDQARQLIIDLETRGSQALPLFISCLEDTGQDMLASFLRTNRQAAKLSKPTLENLTPVVLRPEIRKPEVLRPETPRPVDIGSGGFGDVGALESLRGNADLAYILSMEPCGHCLIINNVNFCRESGLRTRTGSNIDCEKLRRRFSSLHFMVEVKGDLTAKKMVLALLELAQQDHGALDCCVVVILSHGCQASHLQFPGAVYGTDGCPVSVEKIVNIFNGTSCPSLGGKPKLFFIQACGGEQKDHGFEVASTSPEDESPGSNPEPDATPFQEGLRTFDQLDAISSLPTPSDIFVSYSTFPGFVSWRDPKSGSWYVETLDDIFEQWAHSEDLQSLLLRVANAVSVKGIYKQMPGCFQFLRKKLFFKTS
modifications: codon-optimized; in iC9 construct
B2: D330A-S183A (protein)
chain: GFGDVGALESLRGNADLAYILSMEPCGHCLIINNVNFCRESGLRTRTGANIDCEKLRRRFSSLHFMVEVKGDLTAKKMVLALLELARQDHGALDCCVVVILSHGCQASHLQFPGAVYGTDGCPVSVEKIVNIFNGTSCPSLGGKPKLFFIQACGGEQKDHGFEVASTSPEDESPGSNPEPDATPFQEGLRTFDQLAAISSLPTPSDIFVSYSTFPGFVSWRDPKSGSWYVETLDDIFEQWAHSEDLQSLLLRVANAVSVKGIYKQMPGCFNFLRKKLFFKTSASRA
B3: F406Y (protein)
chain: B2 chain with A49S, A196D, F272Y
B4: C403A (protein)
chain: B2 chain with A49S, A196D, C269A
B5: D315A (protein)
chain: B2 chain with A49S, D181A, A196D
B6: S307A (protein)
chain: B2 chain with A49S, S173A, A196D
B7: Y153F (protein)
chain: B2 chain with Y19F, A49S, A196D
B8: N405Q-S196D (protein)
chain: B2 chain with A49S, S62D, A196D, N271Q
B9: F406W (protein)
chain: B2 chain with A49S, A196D, F272W
B10: D330A-S196A (protein)
chain: B2 chain with A49S, S62A
B11: N405Q-S144D (protein)
chain: B2 chain with S10D, A49S, A196D, N271Q
B12: A316G (protein)
chain: B2 chain with A49S, A182G, A196D
B13: F404T (protein)
chain: B2 chain with A49S, A196D, F270T
B14: F404Y (protein)
chain: B2 chain with A49S, A196D, F270Y
B15: F404W (protein)
chain: B2 chain with A49S, A196D, F270W
B16: N405Q-S144A (protein)
chain: B2 chain with S10A, A49S, A196D, N271Q
B17: F319W (protein)
chain: B2 chain with A49S, F185W, A196D
B18: N405F (protein)
chain: B2 chain with A49S, A196D, N271F
B19: D330A (protein)
chain: B2 chain with A49S
B20: D330E (protein)
chain: B2 chain with A49S, A196E
B21: N405Q-T317S (protein)
chain: B2 chain with A49S, T183S, A196D, N271Q
B22: F406T (protein)
chain: B2 chain with A49S, A196D, F272T
B23: F406A (protein)
chain: B2 chain with A49S, A196D, F272A
B24: Y153A (protein)
chain: B2 chain with Y19A, A49S, A196D
B25: N405Q-S144Aco (protein, UniProt P55211 1-416, looked up, variant N405Q S144A)
chain: B1 chain with S144A
modifications: codon-optimized; in iC9 construct
B26: N405Q-T317Sco (protein, UniProt P55211 1-416, looked up, variant N405Q T317S)
chain: B1 chain with T317S
modifications: codon-optimized; in iC9 construct

The molecules below were run on chimeric Caspase-9 polypeptide (assay: Caspase-9 mutant classes and basal activity (Table 5)). Settings: Caspase-9 mutant class; basal (ligand-independent) signaling compared with unmodified chimeric Caspase-9.
chimeric Caspase-9 polypeptide, sequence (P62942 2-108 F37V limits assumed): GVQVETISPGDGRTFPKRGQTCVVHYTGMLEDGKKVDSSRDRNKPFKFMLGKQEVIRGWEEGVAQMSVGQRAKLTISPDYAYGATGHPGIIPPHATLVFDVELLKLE
Format: cell-based
Text: Even though homo-dimerization of wild-type initiator Caspase-9 is energetically unfavorable, making them mostly monomers in solution [14-16], the low-level inherent basal activity of unprocessed Caspase-9 [15, 17] is enhanced in the presence of the Apaf-1-based “apoptosome”, its natural allosteric regulator [6]. Moreover, supra-physiological expression levels and/or co-localization could lead to proximity-driven dimerization, further enhancing basal activation. The modified cells of the present application may comprise nucleic acids coding for a chimeric Caspase-9 polypeptide having lower basal signaling activity. Polynucleotides comprising Caspase-9 mutants with lower basal signaling may be expressed in the modified cells used for cell therapy herein. In these examples, the modified cells may include a safety switch, comprising a polynucleotide encoding a lower basal signaling chimeric Caspase-9 polypeptide. In the event of an adverse event following administration of the modified cells comprising the chimeric signaling polypeptides or chimeric antigen receptors herein, Caspase-9 activity may be induced by administering the dimerizer to the patient, thus inducing apoptosis and clearance of some, or all of the modified cells. In some examples, the amount of dimerizer administered may be determined as an amount designed to remove the highest amount, at least 80% or 90% of the modified cells. In other examples, the amount of dimerizer administered may be determined as an amount designed to remove only a portion of the modified cells, in order to alleviate negative symptoms or conditions, while leaving a sufficient amount of therapeutic modified cells in the patient, in order to continue therapy. Methods for using chimeric Caspase-9 polypeptides to induce apoptosis are discussed in PCT Application Number PCT/US2011/037381 by Malcolm K. Brenner et al., titled Methods for Inducing Selective Apoptosis, filed May 20, 2011, and in U.S. patent application Ser. No. 13/112,739 by Malcolm K. Brenner et al., titled Methods for Inducing Selective Apoptosis, filed May 20, 2011, issued Jul. 28, 2015 as U.S. Pat. No. 9,089,520. Chimeric caspase polypeptides having modified basal activity are discussed in PCT Application Serial Number PCT/US2014/022004 by David Spencer et al., titled Modified Caspase Polypeptides and Uses Thereof, filed Mar. 7, 2014, published Oct. 9, 2014 as WO2014/164348, and in U.S. patent application Ser. No. 13/792,135 by David Spencer et al., titled Modified Caspase Polypeptides and Uses Thereof, filed Mar. 7, 2014; and in U.S. patent application Ser. No. 14/640,553 by Spencer et al., filed Mar. 6, 2015. Methods for inducing partial apoptosis of the therapeutic modified cells are discussed in PCT Application Number PCT/US14/040964 by Kevin Slawin et al., titled Methods for Inducing Partial Apoptosis Using Caspase Polypeptides, filed Jun. 4, 2014, published Dec. 11, 2014 as WO2014/197638, and in U.S. patent application Ser. No. 14/296,404 by Kevin Slawin et al., titled Methods for Inducing Partial Apoptosis Using Caspase Polypeptides, filed Jun. 4, 2014. These patent applications and publications are all incorporated by reference herein in their entireties.

Row | Basal Activity | Molecule
1 | Decreased | B1
2 | Decreased | B2
3 | Decreased | B3
4 | Similar | B4
5 | Decreased | B5
6 | Decreased | B6
7 | Decreased | B7
8 | Decreased | B8
9 | Decreased | B9
10 | Decreased | B10
11 | Decreased | B11
12 | Decreased | B12
13 | Decreased | B13
14 | Decreased | B14
15 | Decreased | B15
16 | Decreased | B16
17 | Decreased | B17
18 | Decreased | B18
19 | Decreased | B19
20 | Decreased | B20
21 | Decreased | B21
22 | Decreased | B22
23 | Decreased | B23
24 | Decreased | B24

Same assay, conditions: Caspase-9 mutant class; ligand IC50 compared with unmodified chimeric Caspase-9

Row | IC50 | Molecule
25 | higher IC50 | B1
26 | higher IC50 | B2
27 | higher IC50 | B3
28 | Similar | B4
29 | much higher | B5
30 | much higher | B6
31 | much higher | B7
32 | higher IC50 | B8
33 | higher IC50 | B9
34 | higher IC50 | B10
35 | higher IC50 | B11
36 | much higher | B12
37 | much higher | B13
38 | higher IC50 | B14
39 | much higher | B15
40 | higher IC50 | B16
41 | much higher | B17
42 | much higher | B18
43 | higher IC50 | B19
44 | higher IC50 | B20
45 | higher IC50 | B21
46 | much higher | B22
47 | higher IC50 | B23
48 | much higher | B24

Same assay, conditions: Caspase-9 mutant class; mutants marked * = predicted

Row | Basal Activity | Molecule
49 | Decreased | B25
50 | Decreased | B26
